From patent US20040138118 come the findings set out here.

Positions count from the first letter of the chain named.

Data set [1] deals with D76A mutant myostatin pro peptide.
The target of data set [2] is myostatin pro peptide (wild type).
In data set [3] the target is T1, 20-mer D to A mutant peptide (SEQ ID NO:20).
T1 chain: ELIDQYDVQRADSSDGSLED

The target of data set [4] is T2, 20-mer R to Q mutant peptide (SEQ ID NO:19).
T2 chain: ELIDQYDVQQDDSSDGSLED

The target of data set [5] is T3, 20-mer wild type myostatin pro peptide peptide (SEQ ID NO:18).
T3 chain: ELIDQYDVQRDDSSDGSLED

The target of data set [6] is T4, 30-mer D to A mutant peptide (SEQ ID NO:17).
T4 chain: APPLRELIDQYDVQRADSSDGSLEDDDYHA

The target of data set [7] is T5, 30-mer R to Q mutant peptide (SEQ ID NO:16).
T5 chain: T4 chain with R15Q, A16D

The target in data set [8] is T6, 30-mer wild type myostatin pro peptide peptide (SEQ ID NO:15).
T6 chain: T4 chain with A16D

Data set [9] has as its target T7, 40-mer D to A mutant peptide (SEQ ID NO:14).
T7 chain: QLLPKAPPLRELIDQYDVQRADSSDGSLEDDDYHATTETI

Data set [10] deals with T8, 40-mer R to Q mutant peptide (SEQ ID NO:13).
T8 chain: T7 chain with R20Q, A21D

Data set [11] addresses T9, 40-mer wild type myostatin pro peptide peptide (SEQ ID NO:12).
T9 chain: T7 chain with A21D

Sequence of D76A mutant myostatin pro peptide (chain, as listed by the source D76A): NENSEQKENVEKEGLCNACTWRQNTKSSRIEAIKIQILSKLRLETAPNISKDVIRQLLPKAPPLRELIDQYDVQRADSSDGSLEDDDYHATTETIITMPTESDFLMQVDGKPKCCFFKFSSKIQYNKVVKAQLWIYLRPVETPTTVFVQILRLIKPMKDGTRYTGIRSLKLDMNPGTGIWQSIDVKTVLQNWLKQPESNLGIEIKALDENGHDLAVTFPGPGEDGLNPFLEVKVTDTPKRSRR

B1: mammalian Tolloid-like-1 (mTLL-1) (protein)
chain: AATSRTERIWPGGVIPYVIGGNFTGSQRAMFKQAMRHWEKHTCVTFIERSDEESYIVFTYRPCGCCSYVGRRGNGPQAISIGKNCDKFGIVVHELGHVIGFWHEHTRPDRDNHVTIIRENIQPGQEYNFLKMEPGEVNSLGERYDFDSIMHYARNTFSRGMFLDTILPSRDDNGIRPAIGQRTRLSKGDIAQARKLYRCPACGETLQESNGNLSSPGFPNGYPSYTHCIWRVSVTPGEKIVLNFTTMDLYKSSLCWYDYIEVRDGYWRKSPLLGRFCGDKLPEVLTSTDSRMWIEFRSSSNWVGKGFAAVYEAICGGEIRKNEGQIQSPNYPDDYRPMKECVWKITVSESYHVGLTFQSFEIERHDNCAYDYLEVRDGTSENSPLIGRFCGYDKPEDIRSTSNTLWMKFVSDGTVNKAGFAANFFKEEDECAKPDRGGCEQRCLNTLGSYQCACEPGYELGPDRRSCEAACGGLLTKLNGTITTPGWPKEYPPNKNCVWQVVAPTQYRISVKFEFFELEGNEVCKYDYVEIWSGLSSESKLHGKFCGAEVPEVITSQFNNMRIEFKSDNTVSKKGFKAHFFSDKDECSKDNGGCQHECVNTMGSYMCQCRNGFVLHDNKHDCKEAECEQKIHSPSGLITSPNWPDKYPSRKECTWEISATPGHRIKLAFSEFEIEQHQECAYDHLEVFDGETEKSPILGRLCGNKIPDPLVATGNKMFVRFVSDASVQRKGFQATHSTECGGRLKAESKPRDLYSHAQFGDNNYPGQVDCEWLLVSERGSRLELSFQTFEVEEEADCGYDYVELFDGLDSTAVGLGRFCGSGPPEEIYSIGDSVLIHFHTDDTINKKGFHIRYKSIRYPDTTHTKK
Take B1: the “proteolytic cleavage of the mutant pro peptide in the latent complex, western blot (FIGS. 3D and E)” value (shortened to “proteolytic cleavage … (FIGS. 3D and E)”) in [1] is listed as “completely resistant to proteolysis by each of the four proteinases”. In data set [2], the “partial proteolytic cleavage of the pro peptide in the latent complex, western blot (FIG. 3E)” value (“partial proteolytic cleavage” for short) was “BMP-1, mTLL-1, and mTLL-2, were approximately equally effective in cleaving the pro peptide”; the “proteolytic cleavage of free pro peptide” value is on record as “All four of these proteinases also cleaved pro peptide that had been purified away from the C-terminal dimer”; the “proteolytic cleavage, SDS-PAGE and western blot with anti-pro peptide antiserum” value is on record as “A discrete proteolytic cleavage product of the pro peptide was detected in each reaction containing one of the four proteases”.

B2: mammalian Tolloid-like-2 (mTLL-2) (protein)
chain: ATTSRTERIWPGGVIPYVIGGNFTGSQRAIFKQAMRHWEKHTCVTFIERTDEESFIVFSYRTCGCCSYVGRRGGGPQAISIGKNCDKFGIVAHELGHVVGFWHEHTRPDRDQHVTIIRENIQPGQEYNFLKMEAGEVSSLGETYDFDSIMHYARNTFSRGVFLDTILPRQDDNGVRPTIGQRVRLSQGDIAQARKLYKCPACGETLQDTTGNFSAPGFPNGYPSYSHCVWRISVTPGEKIVLNFTSMDLFKSRLCWYDYVEVRDGYWRKAPLLGRFCGDKIPEPLVSTDSRLWVEFRSSSNILGKGFFAAYEATCGGDMNKDAGQIQSPNYPDDYRPSKECVWRITVSEGFHVGLTFQAFEIERHDSCAYDYLEVRDGPTEESALIGHFCGYEKPEDVKSSSNRLWMKFVSDGSINKAGFAANFFKEVDECSWPDHGGCEHRCVNTLGSYKCACDPGYELAADKKMCEVACGGFITKLNGTITSPGWPKEYPTNKNCVWQVVAPAQYRISLQFEVFELEGNDVCKYDFVEVRSGLSPDAKLHGRFCGSETPEVITSQSNNMRVEFKSDNTVSKRGFRAHFFSDKDECAKDNGGCQHECVNTFGSYLCRCRNGYWLHENGHDCKEAGCAHKISSVEGTLASPNWPDKYPSRRECTWNISSTAGHRVKLTFNEFEIEQHQECAYDHLEMYDGPDSLAPILGRFCGSKKPDPTVASGSSMFLRFYSDASVQRKGFQAVHSTECGGRLKAEVQTKELYSHAQFGDNNYPSEARCDWVIVAEDGYGVELTFRTFEVEEEADCGYDYMEAYDGYDSSAPRLGRFCGSGPLEEIYSAGDSLMIRFRTDDTINKKGFHARYTSTKFQDALHMKK
Regarding B2, the “peptide cleavage, HPLC and mass spectrometry” value in [3] is “the peptides containing the D→A mutation at the P1′ position were not cleaved”; in [4], “The 40-mer, 30-mer, and 20-mer wild type and R→Q mutant peptides were cleaved by conditioned media containing TLL-2”; in [5], “The 40-mer, 30-mer, and 20-mer wild type and R→Q mutant peptides were cleaved by conditioned media containing TLL-2”; in data set [6], “the peptides containing the D→A mutation at the P1′ position were not cleaved”; in data set [7], “The 40-mer, 30-mer, and 20-mer wild type and R→Q mutant peptides were cleaved by conditioned media containing TLL-2”; in [8], “The 40-mer, 30-mer, and 20-mer wild type and R→Q mutant peptides were cleaved by conditioned media containing TLL-2”. Moreover, the “peptide cleavage, HPLC and mass spectrometry” value in data set [9] is “the peptides containing the D→A mutation at the P1′ position were not cleaved”; in data set [10], “The 40-mer, 30-mer, and 20-mer wild type and R→Q mutant peptides were cleaved by conditioned media containing TLL-2”; in data set [11], “The 40-mer, 30-mer, and 20-mer wild type and R→Q mutant peptides were cleaved by conditioned media containing TLL-2”. Besides, the “proteolytic cleavage … (FIGS. 3D and E)” value in data set [1] is “completely resistant to proteolysis by each of the four proteinases”. Further, the “partial proteolytic cleavage” value in data set [2] was “BMP-1, mTLL-1, and mTLL-2, were approximately equally effective in cleaving the pro peptide”. For the same protein, the “proteolytic cleavage of free pro peptide” value in data set [2] is given as “All four of these proteinases also cleaved pro peptide that had been purified away from the C-terminal dimer”. Also, the “proteolytic cleavage, SDS-PAGE and western blot with anti-pro peptide antiserum” value in data set [2] is “A discrete proteolytic cleavage product of the pro peptide was detected in each reaction containing one of the four proteases”.

B3: bone morphogenic protein-1 (BMP-1) (protein)
chain: AATSRPERVWPDGVIPFVIGGNFTGSQRAVFRQAMRHWEKHTCVTFLERTDEDSYIVFTYRPCGCCSYVGRRGGGPQAISIGKNCDKFGIVVHELGHVVGFWHEHTRPDRDRHVSIVRENIQPGQEYNFLKMEPQEVESLGETYDFDSIMHYARNTFSRGIFLDTIVPKYEVNGVKPPIGQRTRLSKGDIAQARKLYKCPACGETLQDSTGNFSSPEYPNGYSAHMHCVWRISVTPGEKIILNFTSLDLYRSRLCWYDYVEVRDGFWRKAPLRGRFCGSKLPEPIVSTDSRLWVEFRSSSNWVGKGFFAVYEAICGGDVKKDYGHIQSPNYPDDYRPSKVCIWRIQVSEGFHVGLTFQSFEIERHDSCAYDYLEVRDGHSESSTLIGRYCGYEKPDDIKSTSSRLWLKFVSDGSINKAGFAVNFFKEVDECSRPNRGGCEQRCLNTLGSYKCSCDPGYELAPDKRRCEAACGGFLTKLNGSITSPGWPKEYPPNKNCIWQLVAPTQYRISLQFDFFETEGNDVCKYDFVEVRSGLTADSKLHGKFCGSEKPEVITSQYNNMRVEFKSDNTVSKKGFKAHFFSEKRPALQPPRGRPHQLKFRVQKRNRTPQ
Regarding B3, the “proteolytic cleavage … (FIGS. 3D and E)” value in data set [1] is given as “completely resistant to proteolysis by each of the four proteinases”. Also, in data set [2], the “partial proteolytic cleavage” value is “BMP-1, mTLL-1, and mTLL-2, were approximately equally effective in cleaving the pro peptide”; the “proteolytic cleavage of free pro peptide” value is reported as “All four of these proteinases also cleaved pro peptide that had been purified away from the C-terminal dimer”; the “proteolytic cleavage of the pro peptide in the latent complex, western blot (FIG. 3D)” value is “incubation of the purified latent complex with purified BMP-1 resulted in complete cleavage of the pro peptide to generate a single product”; the “proteolytic cleavage, SDS-PAGE and western blot with anti-pro peptide antiserum” value was “A discrete proteolytic cleavage product of the pro peptide was detected in each reaction containing one of the four proteases”.
